Test results published in patent publication US20210246166A1 (Bayer, published 2021).
Each block holds one binder with its values, some of them ahead of it. Numbered stars: 1 amine (or outer) side, 2 acyl side, 3 side chain; on linkers, the order of the positions; unused ones are H or OH. Bridge positions count the residues as written; N and C are the ends. Square brackets hold non-standard residues; d marks the D form. Ends that are not written are not given here. X13 = (2S)‑2‑amino‑3‑(1-methylcyclopropyl)propanoic acid, CC1(C[C@H](N[*:1])C(=O)[*:2])CC1; Oic = O=C(O)[C@@H]1C[C@@H]2CCCC[C@@H]2N1; tBuAla = CC(C)(C)C[C@H](N)C(=O)O; Chg = N[C@H](C(=O)O)C1CCCCC1; Pen = CC(C)(S)[C@H](N)C(=O)O; 3Amb = NCc1cccc(C(=O)O)c1; NMeC = CN[C@@H](CS)C(=O)O; Nva = CCC[C@H](N)C(=O)O; PEG2 = NCCOCCOCCC(=O)O; Sar = CNCC(=O)O

Tests used:
[1] = molecular target: Recombinant human MASP2 enzyme (fragment corresponding to amino acids 297-686, C-terminal His Tag) (human, UniProt O00187 297-686); assay: cell-based or functional assay
Recombinant human MASP2 enzyme (fragment corresponding to amino acids 297-686, C-terminal His Tag), sequence (O00187 other isoform, or with tags, fused parts or gaps limits assumed): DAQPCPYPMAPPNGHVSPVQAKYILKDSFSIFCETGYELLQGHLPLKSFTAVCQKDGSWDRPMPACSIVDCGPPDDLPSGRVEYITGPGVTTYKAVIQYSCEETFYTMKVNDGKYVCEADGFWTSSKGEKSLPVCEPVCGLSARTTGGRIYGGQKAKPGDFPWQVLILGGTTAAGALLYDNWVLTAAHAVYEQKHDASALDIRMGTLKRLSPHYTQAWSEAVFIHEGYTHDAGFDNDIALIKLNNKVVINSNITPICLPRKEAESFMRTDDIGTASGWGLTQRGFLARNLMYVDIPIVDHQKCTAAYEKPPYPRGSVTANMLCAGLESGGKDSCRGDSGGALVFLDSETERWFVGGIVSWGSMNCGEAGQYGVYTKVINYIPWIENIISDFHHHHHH

[2] = molecular target: T1, Recombinant human MASP1 enzyme (fragment corresponding to amino acids 297-699, C-terminal His Tag) (human, UniProt P48740 297-699); assay: cell-based or functional assay
T1 sequence: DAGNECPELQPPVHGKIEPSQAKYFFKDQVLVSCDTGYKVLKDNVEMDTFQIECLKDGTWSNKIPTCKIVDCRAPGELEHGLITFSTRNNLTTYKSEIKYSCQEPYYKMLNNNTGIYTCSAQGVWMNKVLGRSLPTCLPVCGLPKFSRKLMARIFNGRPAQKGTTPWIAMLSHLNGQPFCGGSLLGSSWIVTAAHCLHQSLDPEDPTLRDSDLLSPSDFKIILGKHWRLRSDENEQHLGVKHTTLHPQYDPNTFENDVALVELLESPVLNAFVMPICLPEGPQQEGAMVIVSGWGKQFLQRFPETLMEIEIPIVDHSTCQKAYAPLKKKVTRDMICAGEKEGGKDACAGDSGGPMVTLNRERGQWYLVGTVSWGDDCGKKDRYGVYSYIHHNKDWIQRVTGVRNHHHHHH

human MASP2 IC50 [1]: 44 nM
human MASP1 IC50 [2]: 5.7 nM
B1: AIC+SRSLPP-(Chg)-(Pen)+IPD-NH2 (peptide)
peptide: AICSRSLPP[Chg][Pen]IPD-NH2
modifications: disulfide 3-11; N-terminus assumed
SMILES: CC[C@H](C)[C@H](NC(=O)[C@H](C)N)C(=O)N[C@H]1CSSC(C)(C)[C@@H](C(=O)N[C@H](C(=O)N2CCC[C@H]2C(=O)N[C@@H](CC(=O)O)C(N)=O)[C@@H](C)CC)NC(=O)[C@H](C2CCCCC2)NC(=O)[C@@H]2CCCN2C(=O)[C@@H]2CCCN2C(=O)[C@H](CC(C)C)NC(=O)[C@H](CO)NC(=O)[C@H](CCCNC(=N)N)NC(=O)[C@H](CO)NC1=O

human MASP2 IC50 [1]: 74 nM
human MASP1 IC50 [2]: 5.7 nM
B3: ((N-Me)G)-IC+SRS-((tBu)A)-PPI-(Pen)+IP-(PEG1(10 atoms))-NH2 (peptide)
peptide: [Sar]ICSRS[tBuAla]PPI[Pen]IP[PEG2]-NH2
modifications: disulfide 3-11; N-terminus assumed
SMILES: CC[C@H](C)[C@H](NC(=O)CNC)C(=O)N[C@H]1CSSC(C)(C)[C@@H](C(=O)N[C@H](C(=O)N2CCC[C@H]2C(=O)NCCOCCOCCC(N)=O)[C@@H](C)CC)NC(=O)[C@H]([C@@H](C)CC)NC(=O)[C@@H]2CCCN2C(=O)[C@@H]2CCCN2C(=O)[C@H](CC(C)(C)C)NC(=O)[C@H](CO)NC(=O)[C@H](CCCNC(=N)N)NC(=O)[C@H](CO)NC1=O

human MASP2 IC50 [1]: 190 nM
human MASP1 IC50 [2]: 5.2 nM
B4: ((N-Me)G)-IC+SRSLP-(Oic)-I-(Pen)+IPQ-NH2 (peptide)
peptide: [Sar]ICSRSLP[Oic]I[Pen]IPQ-NH2
modifications: disulfide 3-11; N-terminus assumed
SMILES: CC[C@H](C)[C@H](NC(=O)CNC)C(=O)N[C@H]1CSSC(C)(C)[C@@H](C(=O)N[C@H](C(=O)N2CCC[C@H]2C(=O)N[C@@H](CCC(N)=O)C(N)=O)[C@@H](C)CC)NC(=O)[C@H]([C@@H](C)CC)NC(=O)[C@@H]2C[C@@H]3CCCC[C@@H]3N2C(=O)[C@@H]2CCCN2C(=O)[C@H](CC(C)C)NC(=O)[C@H](CO)NC(=O)[C@H](CCCNC(=N)N)NC(=O)[C@H](CO)NC1=O

human MASP2 IC50 [1]: 100 nM
human MASP1 IC50 [2]: 5.3 nM
B5: aIC+SRSLP-(Oic)-I-(Pen)+IPE-OH (peptide)
peptide: [dA]ICSRSLP[Oic]I[Pen]IPE-OH
modifications: disulfide 3-11; N-terminus assumed
SMILES: CC[C@H](C)[C@H](NC(=O)[C@@H](C)N)C(=O)N[C@H]1CSSC(C)(C)[C@@H](C(=O)N[C@H](C(=O)N2CCC[C@H]2C(=O)N[C@@H](CCC(=O)O)C(=O)O)[C@@H](C)CC)NC(=O)[C@H]([C@@H](C)CC)NC(=O)[C@@H]2C[C@@H]3CCCC[C@@H]3N2C(=O)[C@@H]2CCCN2C(=O)[C@H](CC(C)C)NC(=O)[C@H](CO)NC(=O)[C@H](CCCNC(=N)N)NC(=O)[C@H](CO)NC1=O

human MASP2 IC50 [1]: 180 nM
human MASP1 IC50 [2]: 5.1 nM
B6: ((N-Me)G)-IC+SRSLP-(Oic)-I-(Pen)+IPE-OH (peptide)
peptide: [Sar]ICSRSLP[Oic]I[Pen]IPE-OH
modifications: disulfide 3-11; N-terminus assumed
SMILES: CC[C@H](C)[C@H](NC(=O)CNC)C(=O)N[C@H]1CSSC(C)(C)[C@@H](C(=O)N[C@H](C(=O)N2CCC[C@H]2C(=O)N[C@@H](CCC(=O)O)C(=O)O)[C@@H](C)CC)NC(=O)[C@H]([C@@H](C)CC)NC(=O)[C@@H]2C[C@@H]3CCCC[C@@H]3N2C(=O)[C@@H]2CCCN2C(=O)[C@H](CC(C)C)NC(=O)[C@H](CO)NC(=O)[C@H](CCCNC(=N)N)NC(=O)[C@H](CO)NC1=O

human MASP2 IC50 [1]: 250 nM
human MASP1 IC50 [2]: 5.2 nM
B11: AIC+SRS-((tBu)A)-P-(Oic)-I-((N-Me)C)+I-NH2 (peptide)
peptide: AICSRS[tBuAla]P[Oic]I[NMeC]I-NH2
modifications: disulfide 3-11; N-terminus assumed
SMILES: CC[C@H](C)[C@H](NC(=O)[C@@H]1CSSC[C@H](NC(=O)[C@@H](NC(=O)[C@H](C)N)[C@@H](C)CC)C(=O)N[C@@H](CO)C(=O)N[C@@H](CCCNC(=N)N)C(=O)N[C@@H](CO)C(=O)N[C@@H](CC(C)(C)C)C(=O)N2CCC[C@H]2C(=O)N2[C@@H](C[C@@H]3CCCC[C@@H]32)C(=O)N[C@@H]([C@@H](C)CC)C(=O)N1C)C(N)=O

Second part, the binder before the results:

B2: ((N-Me)G)-IC+SRS-((2S)-2-amino-3-(1-methylcyclopropyl)propanoic acid)-PPI-(Pen)+IP-NH2 (peptide)
peptide: [Sar]ICSRS[X13]PPI[Pen]IP-NH2
modifications: disulfide 3-11; N-terminus assumed
SMILES: CC[C@H](C)[C@H](NC(=O)CNC)C(=O)N[C@H]1CSSC(C)(C)[C@@H](C(=O)N[C@H](C(=O)N2CCC[C@H]2C(N)=O)[C@@H](C)CC)NC(=O)[C@H]([C@@H](C)CC)NC(=O)[C@@H]2CCCN2C(=O)[C@@H]2CCCN2C(=O)[C@H](CC2(C)CC2)NC(=O)[C@H](CO)NC(=O)[C@H](CCCNC(=N)N)NC(=O)[C@H](CO)NC1=O
human MASP2 IC50 [1]: 17 nM
human MASP1 IC50 [2]: 5.1 nM

B7: aIC+SRSLP-(Oic)-I-(Pen)+IPQ-NH2 (peptide)
peptide: [dA]ICSRSLP[Oic]I[Pen]IPQ-NH2
modifications: disulfide 3-11; N-terminus assumed
SMILES: CC[C@H](C)[C@H](NC(=O)[C@@H](C)N)C(=O)N[C@H]1CSSC(C)(C)[C@@H](C(=O)N[C@H](C(=O)N2CCC[C@H]2C(=O)N[C@@H](CCC(N)=O)C(N)=O)[C@@H](C)CC)NC(=O)[C@H]([C@@H](C)CC)NC(=O)[C@@H]2C[C@@H]3CCCC[C@@H]3N2C(=O)[C@@H]2CCCN2C(=O)[C@H](CC(C)C)NC(=O)[C@H](CO)NC(=O)[C@H](CCCNC(=N)N)NC(=O)[C@H](CO)NC1=O
human MASP2 IC50 [1]: 130 nM
human MASP1 IC50 [2]: 5.3 nM

B8: (3-(Aminomethyl)benzoic acid)-IC+SRS-((tBu)A)-PPI-(Pen)+IP-NH2 (peptide)
peptide: [3Amb]ICSRS[tBuAla]PPI[Pen]IP-NH2
modifications: disulfide 3-11; N-terminus assumed
SMILES: CC[C@H](C)[C@H](NC(=O)c1cccc(CN)c1)C(=O)N[C@H]1CSSC(C)(C)[C@@H](C(=O)N[C@H](C(=O)N2CCC[C@H]2C(N)=O)[C@@H](C)CC)NC(=O)[C@H]([C@@H](C)CC)NC(=O)[C@@H]2CCCN2C(=O)[C@@H]2CCCN2C(=O)[C@H](CC(C)(C)C)NC(=O)[C@H](CO)NC(=O)[C@H](CCCNC(=N)N)NC(=O)[C@H](CO)NC1=O
human MASP2 IC50 [1]: 16 nM
human MASP1 IC50 [2]: 5.4 nM

B9: A-(Nva)-C+SRS-((tBu)A)-PPI-(Pen)+IPD-NH2 (peptide)
peptide: A[Nva]CSRS[tBuAla]PPI[Pen]IPD-NH2
modifications: disulfide 3-11; N-terminus assumed
SMILES: CCC[C@H](NC(=O)[C@H](C)N)C(=O)N[C@H]1CSSC(C)(C)[C@@H](C(=O)N[C@H](C(=O)N2CCC[C@H]2C(=O)N[C@@H](CC(=O)O)C(N)=O)[C@@H](C)CC)NC(=O)[C@H]([C@@H](C)CC)NC(=O)[C@@H]2CCCN2C(=O)[C@@H]2CCCN2C(=O)[C@H](CC(C)(C)C)NC(=O)[C@H](CO)NC(=O)[C@H](CCCNC(=N)N)NC(=O)[C@H](CO)NC1=O
human MASP2 IC50 [1]: 19 nM
human MASP1 IC50 [2]: 5.2 nM

B10: ((N-Me)G)-IC+SRSLP-(Oic)-I-(Pen)+IPQ-OH (peptide)
peptide: [Sar]ICSRSLP[Oic]I[Pen]IPQ-OH
modifications: disulfide 3-11; N-terminus assumed
SMILES: CC[C@H](C)[C@H](NC(=O)CNC)C(=O)N[C@H]1CSSC(C)(C)[C@@H](C(=O)N[C@H](C(=O)N2CCC[C@H]2C(=O)N[C@@H](CCC(N)=O)C(=O)O)[C@@H](C)CC)NC(=O)[C@H]([C@@H](C)CC)NC(=O)[C@@H]2C[C@@H]3CCCC[C@@H]3N2C(=O)[C@@H]2CCCN2C(=O)[C@H](CC(C)C)NC(=O)[C@H](CO)NC(=O)[C@H](CCCNC(=N)N)NC(=O)[C@H](CO)NC1=O
human MASP2 IC50 [1]: 170 nM
human MASP1 IC50 [2]: 5.4 nM
